Results as given in article PMC8155481.

Experiments:
[1] = biological target: FBG-like domain of human Tenascin-W with Arg1220 changed to alanine (FBG-W^RKKA) (human); experiment: SPR; Biacore T200; FBG-like domains immobilised on CM5 by amine coupling; mature TGF-β1 injected in single-cycle mode; PBS with 0.05% P-20, 25°C, 30 µl/min; heterogeneous ligand model; apparent constants
[2] = biological target: FBG-like domain of human Tenascin-X (human); experiment: as above

KD1 (heterogeneous ligand model, site 1) [1]: 1.89 µM
KD2 (heterogeneous ligand model, site 2) [1]: 6.48 µM
ka1 (heterogeneous ligand model, site 1) [1]: 1040 M⁻¹ s⁻¹
ka2 (heterogeneous ligand model, site 2) [1]: 14300 M⁻¹ s⁻¹
kd1 (heterogeneous ligand model, site 1) [1]: 0.00196 s⁻¹
kd2 (heterogeneous ligand model, site 2) [1]: 0.0926 s⁻¹
ka1 (heterogeneous ligand model, site 1) [2]: 8080 M⁻¹ s⁻¹
ka2 (heterogeneous ligand model, site 2) [2]: 207000 M⁻¹ s⁻¹
kd1 (heterogeneous ligand model, site 1) [2]: 0.00276 s⁻¹
kd2 (heterogeneous ligand model, site 2) [2]: 0.0845 s⁻¹
Substance: recombinant human mature TGF-β1 (ligand)
